Experimental data as given in paper PMC12858339 (The Journal of Biological Chemistry, 2025).

B1: myristoylated M-PMV MA protein extended by 18 amino acids of the downstream phosphoprotein region of Gag (myrMAPP) (domain or fragment)
chain: GQELSQHERYVEQLKQALKTRGVKVKYADLLKFFDFVKDTCPWFPQEGTIDIKRWRRVGDCFQDYYNTFGPEKVPVTAFSYWNLIKELIDKKEVNPQVMAAVAQTEEILKSNSQTDL
modifications: N-terminal myristoyl; uniformly 15N-labelled in some NMR and mixed-isotope XL-MS samples
notes: source: E. coli BL21 (DE3), co-transformed with a plasmid coding yeast N-myristoyl transferase, purified (Ni-NTA agarose)
B2: non-myristoylated M-PMV MA protein extended by 18 amino acids of the downstream phosphoprotein region of Gag (MAPP) (domain or fragment)
chain: GQELSQHERYVEQLKQALKTRGVKVKYADLLKFFDFVKDTCPWFPQEGTIDIKRWRRVGDCFQDYYNTFGPEKVPVTAFSYWNLIKELIDKKEVNPQVMAAVAQTEEILKSNSQTDL

Biological target: T1, calmodulin (CaM), human calmodulin-1 (human, UniProt P0DP23 1-149)
T1 construct: also called CaM-NHS-Red
Test: MST; Red-NHS-labelled CaM kept constant (466 nM in the results, 50 nM in the methods), (myr)MAPP titrated; 50 mM Tris-HCl, 100 mM NaCl, 0.05% Tween 20, pH 7.4, with 20 mM CaCl2; 25 °C; triplicates
Conditions: both partners purified

Binder | Kd [µM]
B1 | 4.2
B2 | 33
